# Measurements published in publication PMC5016554.
# Molecular target: growth hormone secretagogue receptor (GHSR) (mouse (endogenous in pancreatic delta cells)) (UniProt Q99P50)
# Sequence of UniProt Q99P50 (Q99P50 whole entry, stated change not applied): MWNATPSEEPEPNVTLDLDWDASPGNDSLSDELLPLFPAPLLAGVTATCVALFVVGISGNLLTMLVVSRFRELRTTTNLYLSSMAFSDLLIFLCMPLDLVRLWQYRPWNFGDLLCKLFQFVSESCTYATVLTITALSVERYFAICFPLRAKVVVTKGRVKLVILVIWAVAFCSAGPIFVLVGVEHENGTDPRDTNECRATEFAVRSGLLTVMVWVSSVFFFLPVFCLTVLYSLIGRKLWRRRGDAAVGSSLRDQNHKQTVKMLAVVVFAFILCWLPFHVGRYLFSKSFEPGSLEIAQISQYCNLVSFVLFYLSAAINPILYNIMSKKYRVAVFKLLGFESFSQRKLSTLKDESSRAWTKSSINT
substance,measurement,value
Mouse ghrelin (peptide),"SST release from perfused mouse pancreas at 12 mmol/l glucose, 1 and 100 nmol/l ghrelin, fold increase",2.7 fold
